Experimental findings from paper PMC5499739, “An RRM–ZnF RNA recognition module targets RBM10 to exonic sequences to promote exon exclusion” are described below.

The target of data set [1] is T1, RBM10 RRM1-ZnF-RRM2 (Homo sapiens) (UniProt P98175).
T1 sequence: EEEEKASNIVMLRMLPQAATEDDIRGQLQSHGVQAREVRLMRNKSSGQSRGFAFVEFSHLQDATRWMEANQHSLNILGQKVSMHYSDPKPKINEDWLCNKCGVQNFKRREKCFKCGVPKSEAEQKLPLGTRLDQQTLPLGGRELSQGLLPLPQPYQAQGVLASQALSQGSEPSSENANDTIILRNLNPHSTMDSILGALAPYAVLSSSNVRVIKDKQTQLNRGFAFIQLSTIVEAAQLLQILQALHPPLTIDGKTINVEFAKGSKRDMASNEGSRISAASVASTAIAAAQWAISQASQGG
Briefly: pulldown. Conditions: 20 nM protein; 20 mM Hepes pH 7.8, 80 mM KCl, 20 mM NaCl, 10% glycerol, 2 mM DTT; 4 C.

Data set [2] concerns the target T2, RBM10 RRM1-ZnF (Homo sapiens) (UniProt P98175).
T2 sequence: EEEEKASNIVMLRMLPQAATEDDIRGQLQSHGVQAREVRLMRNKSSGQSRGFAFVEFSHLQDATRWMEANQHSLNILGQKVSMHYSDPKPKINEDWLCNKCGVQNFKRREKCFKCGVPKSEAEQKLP
Briefly: pulldown. Conditions: 20 nM protein; 20 mM Hepes pH 7.8, 80 mM KCl, 20 mM NaCl, 10% glycerol, 2 mM DTT; 4 C.

Data set [3] has as its target T3, RBM10 RRM1-ZnF (Homo sapiens, UniProt P98175 129-242).
T3 sequence: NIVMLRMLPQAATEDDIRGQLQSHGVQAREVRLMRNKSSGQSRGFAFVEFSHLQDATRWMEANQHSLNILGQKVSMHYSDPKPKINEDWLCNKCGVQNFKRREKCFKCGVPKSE
Briefly: ITC; 10 uM ZnCl2; 10 mM sodium phosphate pH 6.9, 50 mM NaCl, 1 mM TCEP (+10 uM ZnCl2 for ZnF constructs); ITC 25 C; NMR 298 or 310 K. Conditions: protein: recombinant; tags: His6 or His6-SUMO3, cleaved with HRV 3C. Background: Isothermal titration calorimetry measures the heat released or taken up as one component is titrated into another.

Data set [4] concerns the target T3, RBM10 RRM1-ZnF. The description is as above. Conditions: protein: recombinant; tags: His6 or His6-SUMO3, cleaved with HRV 3C. This is another data set of the same source.
For the next data set, the target named is T4, RBM10 RRM2 (Homo sapiens, UniProt P98175 300-384).
T4 sequence: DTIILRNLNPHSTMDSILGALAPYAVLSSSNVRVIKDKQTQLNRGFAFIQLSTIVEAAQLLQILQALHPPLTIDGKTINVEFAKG
Briefly: ITC; 10 mM sodium phosphate pH 6.9, 50 mM NaCl, 1 mM TCEP (+10 uM ZnCl2 for ZnF constructs); ITC 25 C; NMR 298 or 310 K. Conditions: protein: recombinant; tags: His6 or His6-SUMO3, cleaved with HRV 3C.

The next data set concerns the target T5, RBM10 RRM1-ZnF-RRM2 (Homo sapiens, UniProt P98175 129-384).
T5 sequence: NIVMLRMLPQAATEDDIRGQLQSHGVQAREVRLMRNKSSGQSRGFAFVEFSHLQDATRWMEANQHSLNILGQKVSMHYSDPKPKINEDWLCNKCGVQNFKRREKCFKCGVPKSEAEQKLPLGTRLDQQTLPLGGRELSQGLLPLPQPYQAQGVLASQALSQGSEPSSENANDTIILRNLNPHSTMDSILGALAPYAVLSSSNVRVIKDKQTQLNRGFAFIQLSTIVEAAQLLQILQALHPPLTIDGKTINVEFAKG
Briefly: NMR; 10 uM ZnCl2; RRM1-ZnF slow exchange, Kd in nM range; RRM2 second weak event, Kd in uM range; 10 mM sodium phosphate pH 6.9, 50 mM NaCl, 1 mM TCEP (+10 uM ZnCl2 for ZnF constructs); ITC 25 C; NMR 298 or 310 K. Conditions: protein: recombinant; tags: His6 or His6-SUMO3, cleaved with HRV 3C.

Data set [5] deals with T3, RBM10 RRM1-ZnF. Briefly: ITC; 10 uM ZnCl2; 10 mM sodium phosphate pH 6.9, 50 mM NaCl, 1 mM TCEP (+10 uM ZnCl2 for ZnF constructs); ITC 25 C; NMR 298 or 310 K. The following applies: protein: recombinant; tags: His6 or His6-SUMO3, cleaved with HRV 3C. This is another data set of the same source.

Where only a bound is given, the exact number is not on record here.

For the molecule GAAAGGA [7-mer GAAAGGA], the binding signal (RNAcompete z-score) in data set [1] turned out to be 5.67; in data set [2], 5.87.

Take GGUGGGG [7-mer GGUGGGG]: the binding signal (RNAcompete z-score) in data set [2] is 5.21.

Consider AAAGGGU [7-mer AAAGGGU], for which the binding signal (RNAcompete z-score) in data set [2] turned out to be 5.

On to AAGGGUG [7-mer AAGGGUG], for which the binding signal (RNAcompete z-score) was found to be 5.29 in data set [1] and 5.25 in data set [2].

With GGUUGGG [7-mer GGUUGGG], in data set [2], the binding signal (RNAcompete z-score) came to 5.27.

GGAUGGG [7-mer GGAUGGG]: the figures for the binding signal (RNAcompete z-score) in data set [1] and in data set [2] were 4.83 and 5.66, respectively.

In turn, GGUAGGG [7-mer GGUAGGG] gave a binding signal (RNAcompete z-score) in data set [1] of 4.79.

In the case of GAAAUGG [7-mer GAAAUGG], the binding signal (RNAcompete z-score) is 4.79 in data set [1] and 5.03 in data set [2].

As to GGAAAGG [7-mer GGAAAGG], the binding signal (RNAcompete z-score) in data set [1] stood at 6.43; in data set [2], 6.53.

Turning to GGGAUGG [7-mer GGGAUGG], the binding signal (RNAcompete z-score) in data set [1] amounted to 5.12; in data set [2], 5.71.

Regarding GGGAAGG [7-mer GGGAAGG], the binding signal (RNAcompete z-score) was found to be 5.54 in data set [1] and 5.91 in data set [2].

As to GAAGGGG [7-mer GAAGGGG], the binding signal (RNAcompete z-score) was determined as 4.83 in data set [1] and 5.25 in data set [2].

Consider AGUAGGG [7-mer AGUAGGG], for which, in data set [1], the binding signal (RNAcompete z-score) was 4.88.

For the molecule GAAAGGG [7-mer GAAAGGG], the results for the binding signal (RNAcompete z-score) in data set [1] and in data set [2] were 5.54 and 6.04, respectively.

GGUAAGG [7-mer GGUAAGG]: the binding signal (RNAcompete z-score) turned out to be 4.92 in data set [1] and 4.97 in data set [2].

Regarding AGGGAAA [7-mer AGGGAAA], the binding signal (RNAcompete z-score) in data set [1] was determined as 4.87.

Take GAGUGGG [7-mer GAGUGGG]: the binding signal (RNAcompete z-score) in data set [1] was 4.9; in data set [2], 4.99.

With GGAAGGG [7-mer GGAAGGG], the results for the binding signal (RNAcompete z-score) in data set [1] and in data set [2] were 5.56 and 6, respectively.

B1: CUGUGGU (ssRNA)
RNA: CUGUGGU
In the case of B1, the binding signal in the data set with RBM10 RRM1-ZnF [3] was ~3 fold decrease in affinity vs CUGUGGA.

B2: CUGAGGA (ssRNA)
RNA: CUGAGGA
Take B2: the binding signal with RBM10 RRM1-ZnF [4] was < 2 fold decrease in affinity vs CUGUGGA.

B3: CAGUGGA (ssRNA)
RNA: CAGUGGA
In the case of B3, the binding signal with RBM10 RRM1-ZnF [4] is < 2 fold decrease in affinity vs CUGUGGA.

B4: UGUGGA (ssRNA)
RNA: UGUGGA
Regarding B4, in the data set with RBM10 RRM1-ZnF [4], the binding signal was ~2 fold decrease in affinity vs CUGUGGA.

B5: CUAUGGA (ssRNA)
RNA: CUAUGGA
As to B5, the binding signal with RBM10 RRM1-ZnF [4] was ~5 fold decrease in affinity vs CUGUGGA.

B6: CCCAC (ssRNA)
RNA: CCCAC
B6: the Kd with RBM10 RRM2 is approximately 7 µM.

B7: CUGUGGA (ssRNA)
RNA: CUGUGGA
Turning to B7, the binding result with RBM10 RRM1-ZnF-RRM2 and with RBM10 RRM1-ZnF [5] was “binds” throughout.

B8: UAAUA (ssRNA)
RNA: UAAUA
As for B8, in the data set with RBM10 RRM2, the binding result is “no binding”.

The term Kd denotes the free concentration of one partner at which half of the binding sites on the other are occupied at equilibrium, for simple one-to-one binding.
